Experimental findings from patent US20140294828A1 (COMPLIX, published 2014) are described below.

The target in this assay is HIV-1 Env of the HXB2 strain (envelope glycoprotein complex gp120/gp41) (HIV-1 (HXB2 strain), UniProt P04578 33-856). As to the kind of experiment: cell-based or functional assay.

B1: single-chain Alphabody scAB_Env03_KC (designed binder)
chain: MGHHHHHHHHHHSSGHIEGRHMSIEEIQKPIATIQEAIAWIQKKIYMMTGGSGGGSGGGSGGGSGMSIEEIQKQIAAIQCQIAAIQKQIYAMTGGSGGGSGGGSGGGSGMSIEEIQKQIVAIMEQIVAIVKQISAMTP
modifications: Interchain disulfide between Cys80 of chain 1 and Cys80 of chain 2 (homodimer; paragraph 268, and FIG.11 prints 'scAB_Env03_KC (dimer)').
notes: also called Env03 Cys-mutant
On to B1, for which the “50% inhibitory concentration (IC50), 5-day MTT infection assay, HXB2 virus on MT4-X4 cells” value is 709 nM.
